Assay results published in patent US20260029420A1 (Hoffmann-La Roche, published 2026).

Experiments:
[1] = biological target: T1, human CB2 (full length) (human, UniProt P34972 1-360); experiment: flow cytometry, CHO-DUKX_HOMSA_CNR2_Clone_90_CRE-Luc cells against CHO-DUKX parental cells
T1 construct: whole, on cells; In Western blot and immunoprecipitation the protein stood in cell lysate; also called hCB2; CHODukx CRE hCB2 Cl.90
From the text: For detection an F(ab)₂ goat-anti Mouse IgG₃ PE antibody was used.

[2] = biological target: T2, Human_CB2-pANITA3.1 (human); experiment: Western blot, cell lysate
T2 construct: Expressed on transfected HEK293 cells; tested on fixed cells (IF) or in lysate (WB, IP); also called pANITA3.1 hCB2 (JB175); hCB2 (JB175)
T2 sequence (chain, as listed by the source): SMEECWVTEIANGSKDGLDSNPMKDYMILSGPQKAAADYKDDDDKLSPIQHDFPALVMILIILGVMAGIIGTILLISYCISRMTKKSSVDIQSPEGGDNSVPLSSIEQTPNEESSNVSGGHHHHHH
Experimental: For Western blot analysis, cells were collected using enzyme free dissociation buffer (Cell dissociation buffer enzyme-free Hanks'-based, Gibco), and washed two times with PBS. To prepare cell lysate, 10⁶ cells were lysed with 0.1 ml of lysis buffer (1% NP40, 10% glycerol, 2 mM EDTA, 137 mM NaCl, 20 mM TrisHCl, pH8, Protease Inhibitors) for 10 min on ice. The lysate was cleared by centrifugation at 20′000 g for 5 min. For SDS-PAGE cell lysate was resolved on precast 4-12% gradient gels (NuPAGE® Novex 4-12% Bis-Tris Gel, Invitrogen) with MES running buffer according to the manufacturer's directions. The separation of proteins was visualized by Colloidal Blue staining. The proteins were electrophoretically transferred to nitrocellulose membrane using a dry-blotting system (iBlot, Invitrogen). After blocking the membrane for 16 h in blocking buffer (5% Milk in PBS) at 4° C., specific proteins were detected with appropriate dilutions of mAbs in blocking buffer for 1 h at approximately 20° C. The membrane was then washed four times for 5 minutes in blocking buffer and incubated with horseradish peroxidase conjugated anti-mouse IgG mAb (GAM/IgG (g-chain)/HRP, Sigma, A9917) diluted 1:10'000 in blocking buffer at approximately 20° C. for 1 h. After washing again, blots were developed using ECL Western blotting detection reagents (ECL Western Blotting Substrate, Pierce) to visualize bands.

[3] = biological target: T3, human CB1 (full length) (human, UniProt P21554 1-472); experiment: immunofluorescence, fixed cells
T3 construct: whole, on cells; In Western blot and immunoprecipitation the protein stood in cell lysate; also called hCB1; CHODukx CRE hCB1 Cl.20
T3 sequence (P21554 whole entry): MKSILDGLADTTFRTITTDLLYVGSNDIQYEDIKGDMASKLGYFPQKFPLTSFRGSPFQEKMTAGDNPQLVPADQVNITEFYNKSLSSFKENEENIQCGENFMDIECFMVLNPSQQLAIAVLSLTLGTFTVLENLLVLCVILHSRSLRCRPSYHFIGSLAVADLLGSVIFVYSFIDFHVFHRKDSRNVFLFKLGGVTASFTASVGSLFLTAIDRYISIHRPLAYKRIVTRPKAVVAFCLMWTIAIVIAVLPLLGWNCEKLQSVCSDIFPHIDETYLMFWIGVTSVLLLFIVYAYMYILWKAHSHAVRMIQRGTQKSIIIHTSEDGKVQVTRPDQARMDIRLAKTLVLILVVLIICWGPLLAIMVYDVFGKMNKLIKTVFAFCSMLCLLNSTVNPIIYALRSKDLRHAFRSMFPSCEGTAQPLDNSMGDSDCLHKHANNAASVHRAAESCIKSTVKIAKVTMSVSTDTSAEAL
Experimental: (§1) For IF analysis, methanol-fixed cells were incubated for 20 min in a humid chamber at 37° C. with the respective hCB2 and mCB2 clones. After rinsing twice and washing for 15 min in PBS, 125 μg/ml FITC-conjugated […] anti-mouse IgG antibodies (RAM/IgG (H+L)/FITC, Nordic

[4] = biological target: T4, Mouse_CB2-pANITA3.1 (mouse); experiment: immunofluorescence, fixed cells
T4 construct: Fusion of the mouse CB2 N-terminal extracellular domain with mouse glycophorin A transmembrane and His-tagged cytoplasmic domains; Expressed on transfected HEK293 cells; also called pANITA3.1 mCB2 (JB176); mCB2 (JB176)
T4 sequence (chain, as listed by the source): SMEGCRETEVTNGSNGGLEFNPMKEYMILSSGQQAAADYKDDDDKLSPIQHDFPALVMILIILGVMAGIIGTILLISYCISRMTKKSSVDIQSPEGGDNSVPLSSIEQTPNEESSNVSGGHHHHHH
Experimental: as §1

[5] = biological target: T5, mouse CB2 (full length) (mouse, UniProt P47936 1-347); experiment: immunofluorescence, fixed cells
T5 construct: whole, on cells; In Western blot and immunoprecipitation the protein stood in cell lysate; also called mCB2; CHO-A2 mCB2
T5 sequence (P47936 whole entry): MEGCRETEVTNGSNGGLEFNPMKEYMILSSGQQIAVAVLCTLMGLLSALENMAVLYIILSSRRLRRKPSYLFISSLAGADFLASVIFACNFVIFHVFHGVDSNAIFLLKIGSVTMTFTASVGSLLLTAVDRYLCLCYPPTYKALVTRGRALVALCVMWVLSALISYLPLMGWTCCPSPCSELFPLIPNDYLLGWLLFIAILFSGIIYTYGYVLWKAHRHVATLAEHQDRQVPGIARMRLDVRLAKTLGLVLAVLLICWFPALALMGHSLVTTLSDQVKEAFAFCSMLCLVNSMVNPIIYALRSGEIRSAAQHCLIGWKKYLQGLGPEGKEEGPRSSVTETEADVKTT
Experimental: as §1

T1 sequence (P34972 whole entry): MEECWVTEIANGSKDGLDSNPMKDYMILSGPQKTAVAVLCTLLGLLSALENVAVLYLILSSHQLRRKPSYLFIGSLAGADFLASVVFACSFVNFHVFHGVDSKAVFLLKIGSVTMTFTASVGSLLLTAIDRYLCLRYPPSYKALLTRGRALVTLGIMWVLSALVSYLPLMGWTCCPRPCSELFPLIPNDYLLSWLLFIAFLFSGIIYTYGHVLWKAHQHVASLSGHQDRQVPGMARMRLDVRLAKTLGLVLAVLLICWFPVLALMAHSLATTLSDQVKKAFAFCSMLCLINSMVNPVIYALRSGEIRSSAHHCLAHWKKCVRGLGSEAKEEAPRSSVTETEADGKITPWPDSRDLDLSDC

B1: Anti-CB2 clone 1/622 (antibody, IgG3, V domains shown)
VH: EVQLQQSGPELVKPGASVKISCKTSGYTFTEYTMHWVRQSHGKSLEWIGGIDRYNGDTYYNQKFKDKATLTVDRSSSTAYMELRSLTSEDSAVYFCARNGAMDYWGQGISVTVSS
VL: DVVMTQTPLSLPVSLGDQASISCRSSQSLVHSNGNTYLHWFLQKPGQSPKLLIYKVSIRFSGVPDRFSGSGSGTDFTLKISRVEAEDLGVYFCSQSTHVPPLTFGAGTKLELKR
For B1, the “signal to background ratio” value [1] was 10, the binding result [2] was “binds” and the binding result [3] was “no binding”. B1: no binding [4]; no binding [5].
